Data reported in patent US20090181444A1, “MODIFIED CARBOHYDRATE PROCESSING ENZYME” (priority 2002, published 2009).

Key:
Assay type in all cases: biochemical
[1] = Hydrolysis of 4-methylumbelliferyl-β-D-fucoside, initial rates; conditions: 4-MUFuc, 80° C., pH 6.5
Procedure: (§1) Parameters were determined by the method of initial rates. Activity was measured in time course assays of the hydrolysis of 4-methylumbelliferyl-β-D-glycosides (β-D-gluco, β-D-galacto, β-D-fuco, β-D-manno, β-D-xylo, β-D-glucurono) at 5-15 concentrations (0.001-1.5 mM) incubated at 80° C. in 50 mM sodium phosphate buffer, pH 6.5. Reactions were terminated at 2, 5, 10, 15 min by the addition of 100 μl of ice cold 1M NazCO3, pH 10 and analyzed (Labsystems Fluoroscan Ascent plate reader, […]). KM and kcat were derived by fitting the initial rates to hyperbolic Michaelis-Menten curves using GraFit 4 (Erithacus Software Ltd, Staines, UK).
(§2) Determination of the Michaelis-Menten parameters for the WT and mutant enzymes was performed at pH 6.5 at 80° C. for a broad range of representative, fluorophore-containing 4-methylumbelliferyl glycoside substrates, which allowed activities to be determined with a high degree of sensitivity (Table). Under these optimized assay conditions, the glucoside (Glc), galactoside (Gal) and fucoside (Fuc) substrates were hydrolysed well by SSβG-WT, but the xyloside (Xyl) substrate was hydrolysed relatively poorly (approx. 3% of turnover as determined by kcat compared with β-D-glucoside). […] In all cases the absolute D-stereospecificity and β-stereoselectivity of SSβG was maintained and no activity was detected towards L- or α-glycoside substrates.

[2] = Hydrolysis of 4-methylumbelliferyl-β-D-galactoside, initial rates; conditions: 4-MUGal, 80° C., pH 6.5
Procedure: as §1, §2

[3] = Hydrolysis of 4-methylumbelliferyl-β-D-mannoside, initial rates; conditions: 80° C., pH 6.5
Procedure: as §1, §2

[4] = Kinetic assay with p-nitrophenyl β-D-galactopyranoside, absorbance at 405 nm; conditions: pNPGal
Procedure: (§3) The kinetic activity of SsδG was assessed using ultra-violet/visible spectroscopy. Cleavage of the glycosidic bond of the nitrophenyl sugar analogue releases a chromophore (Scheme 18), either p-nitrophenol or o-nitrophenol.
(§4) The absorbance of these chromophores at 405 nm was continuously measured at regular time intervals, and the Beer-Lambert Law used to calculate the chromophore concentration at each of these time intervals.
(§5) In order to use this equation the extinction coefficient, ∈, of both p-nitrophenol and o-nitrophenol were calculated. Enzyme kinetic parameters were assessed using the initial rates method. The gradient of a plot of chromophore concentration against time gave the initial rate of reaction at a series of substrate concentrations (0.05-10 mM). Kinetic parameters were calculated by regression analysis of the kinetic data on the Michaelis-Menten Model (Fersht, A., Enzyme Structure and Mechanism, W.H. Freeman and Company, New York (1985)). The initial rate of reaction was measured. This model is valid when [substrate]>>[enzyme], which are initial rate conditions.
(§6) KM and νmax were calculated from non-linear Michaelis-Menten and linear Lineweaver-Burk plots. From these values, kcat and kcat/KM were calculated and compared.
(§7) KM=νmax/2, it is the concentration of substrate at which half the active sites are filled. Higher KM values correspond to weaker binding and lower KM values correspond to stronger binding kcat, the turnover number is the number of substrate molecules which are converted to product when the enzyme is saturated with substrate and ν (rate) is maximised. Given both of these considerations, binding and rate, kcat/KM is typically as a measure of the overall relative activity of the enzyme. To allow comparison of the activity of the enzymes, ln({kcat/KM}mutant/{kcat/KM}WT) was calculated for each enzyme-substrate combination, to give overall activity relative to WT.
Substrate solutions (concentration 10 mM in 50 mM pH 6.5 phosphate buffer) were prepared. Kinetic assays were conducted in a 96-well flat bottom microtitre plate. Eight substrate concentrations were chosen for the assay from the range 0.05 mM to 10 mM (prepared from 10 mM stock solution), based on previous experimental experience of the kinetics of each enzyme (default range 0.05 mM to 2.00 mM)*. The enzyme stock solution (˜1 mgmL^−1) was diluted between 16- and 80-fold depending on the kinetic parameters determined*. The enzyme solution (496 µL) was dispensed into a 1.5 mL sealed Eppendorf tube. Into eight further Eppendorf tubes a portion of each substrate solution (650 μL) was dispensed. The tubes were incubated in a Techni Dri Block at 45° C. Simultaneously a 96-well flat bottom microtitre plate was incubated at 45° C. in a plate reader. […] The plate containing the enzyme and substrate solutions was then incubated in the plate reader at 45° C. to allow equilibration. […] Release of p-nitrophenol/o-nitropbenol was measured by absorbance at […], with an automix of 3 s before the first read and Is between every subsequent read. The run time chosen was between 6 min and 10 min*, and readings were taken at intervals of between 6 s and 10 s*.
(§8) A graph of concentration of the released chromophore (either pNP or oNP) against time was drawn for each concentration using Microsoft Excel. […] These gradients were entered into Grafit, which calculated KM and νmax from the Michelis-Menten and Lineweaver-Burk plots. From these kcat and kcat/KM could be calculated. […]

[5] = Kinetic assay with o-nitrophenyl β-D-galactopyranoside-6-phosphate, absorbance at 405 nm; conditions: oNPGalP6, 45° C., pH 6.5 phosphate buffer; averaged over 3 runs, except * 2 runs
Procedure: as §3, §4, §5, §6
as §7, with “Given both of these considerations, binding and rate, kcat/KM is typically as a measure of the overall relative activity of the enzyme.” left out
Substrate solutions (concentration 10 mM in 50 mM pH 6.5 phosphate buffer) were prepared. […] The enzyme stock solution (˜1 mgmL^−1) was diluted between 16- and 80-fold depending on the kinetic parameters determined*. […] Simultaneously a 96-well flat bottom microtitre plate was incubated at 45° C. in a plate reader. […] The plate containing the enzyme and substrate solutions was then incubated in the plate reader at 45° C. to allow equilibration. […] Release of p-nitrophenol/o-nitropbenol was measured by absorbance at […], with an automix of 3 s before the first read and Is between every subsequent read. The run time chosen was between 6 min and 10 min*, and readings were taken at intervals of between 6 s and 10 s*.
as §8

[6] = Substrate specificity compared across 4-methylumbelliferyl-β-D-glycosides
Procedure: as §1, §2

[7] = Hydrolysis of 4-methylumbelliferyl-β-D-xyloside, initial rates; conditions: 80° C., pH 6.5
Procedure: as §1, §2

[8] = Hydrolysis of 4-methylumbelliferyl-β-D-glucoside, initial rates; conditions: 4-MUGlc, 80° C., pH 6.5
Procedure: as §1, §2

B1: WT: Wild type β-glycosidase from Sulfolobus solfataricus (SEQ ID NO: 2), recombinant with N-terminal His6-tag (protein, listed as Sulfolobus solfataricus)
chain: MYSFPNSFRFGWSQAGFQSEMGTPGSEDPNTDWYKWVHDPENMAAGLVSGDLPENGPGYWGNYKTFHDNAQKMGLKIARLNVEWSRIFPNPLPRPQNFDESKQDVTEVEINENELKRLDEYANKDALNHYREIFKDLKSRGLYFILNMYHWPLPLWLHDPIRVRRGDFTGPSGWLSTRTVYEFARFSAYIAWKFDDLVDEYSTMNEPNVVGGLGYVGVKSGFPPGYLSFELSRRHMYNIIQAHARAYDGIKSVSKKPVGIIYANSSFQPLTDKDMEAVEMAENDNRWWFFDAIIRGEITRGNEKIVRDDLKGRLDWIGVNYYTRTVVKRTEKGYVSLGGYGHGCERNSVSLAGLPTSDFGWEFFPEGLYDVLTKYWNRYHLYMYVTENGIADDADYQRPYYLVSHVYQVHRAINSGADVRGYLHWSLADNYEWASGFSMRFGLLKVDYNTKRLYWRPSALVYREIATNGAITDEIEHLNSVPPVKPLRH
modifications: N-terminal His6 tag
Km [1]: 11 ± 2 µM
kcat [1]: 80 ± 2 s⁻¹
Km [2]: 66 ± 17 µM
kcat [2]: 98 ± 7 s⁻¹
Km ([3]; 4-MUMan): 36 ± 9 µM
kcat ([3]; 4-MUMan): 1.8 ± 0.2 s⁻¹
β-D-mannoside activity, turnover relative to β-D-glucoside [3]: approx. 1%
kcat ([4]; 45° C., pH 6.5 phosphate buffer, averaged over 3 runs, except * 2 runs): 5.07 s⁻¹
Km ([4]; 45° C., pH 6.5 phosphate buffer, averaged over 3 runs, except * 2 runs, read-out: KM): 459 µM
Km ([4]; read-out: average KM): 459 µM
Km [5]: 2090 µM
kcat [5]: 5.52 s⁻¹
specificity range of kcat/KM for Glc:Gal:Xyl:Man [6]: 100 fold
Km ([7]; 4-MUXyl): 130 ± 30 µM
kcat ([7]; 4-MUXyl): 3.8 ± 0.3 s⁻¹
turnover (kcat) towards xyloside compared with β-D-glucoside [7]: approx. 3%
Km [8]: 46 ± 17 µM
kcat [8]: 140 ± 20 s⁻¹
